Literature values as cited in patent publication US9145575B2, “Detection of protease and protease activity using a single nanocrescent SERS probe” (The Regents of the University of California, priority 2006, dated 2015).

Target: PSA (Homo sapiens, UniProt P07288)
Settings: mouse model

Sequence of PSA (P07288 25-261): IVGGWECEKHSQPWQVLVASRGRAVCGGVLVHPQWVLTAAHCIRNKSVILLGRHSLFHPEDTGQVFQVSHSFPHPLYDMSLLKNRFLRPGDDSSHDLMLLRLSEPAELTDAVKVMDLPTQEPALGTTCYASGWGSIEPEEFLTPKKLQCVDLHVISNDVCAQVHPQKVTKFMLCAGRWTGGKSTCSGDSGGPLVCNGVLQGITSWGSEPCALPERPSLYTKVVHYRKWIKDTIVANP

HSSKLQ-L (HSSKLQLAAAC; Synthetic protease substrate)
cleavage by proteases in vivo: cleaved by PSA but not by any other proteases
